Tests used:
[1] = target: T1, Recombinant human CD39-L4 (NTPDase5, ENTPD5) (human, UniProt O75356 25-428); test: ELISA on coated RechuCD39-L4, OD 450 nm [top panel CHS2-I-391]
T1 construct: Coated in ELISA
T1 sequence: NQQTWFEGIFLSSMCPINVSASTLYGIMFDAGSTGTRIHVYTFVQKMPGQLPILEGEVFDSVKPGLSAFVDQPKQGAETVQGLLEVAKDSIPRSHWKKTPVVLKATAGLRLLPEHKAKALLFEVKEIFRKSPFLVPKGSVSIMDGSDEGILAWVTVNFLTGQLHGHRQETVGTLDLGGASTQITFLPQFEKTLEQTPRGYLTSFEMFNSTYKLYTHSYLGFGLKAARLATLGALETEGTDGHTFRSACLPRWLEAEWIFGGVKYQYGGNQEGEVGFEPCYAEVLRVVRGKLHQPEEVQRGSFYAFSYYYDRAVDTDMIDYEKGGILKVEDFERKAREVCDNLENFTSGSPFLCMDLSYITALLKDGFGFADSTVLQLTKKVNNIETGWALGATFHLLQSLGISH
Experimental: (§1) Wells were washed in TBS Tween 20, and further saturated 2H at RT in TBS Blocking buffer. Dose range concentration of primary antibody was incubated in TBS blocking buffer for 2h at RT. Wells were washed in TBS Tween 20. […] Optical density was measured on Enspire at OD=450.

[2] = target: T2, CD39 mutant 19 (R138A, M139A, E142K) (human, UniProt P49961 1-510); test: flow cytometry, HEK293T cells transfected with mutant 19
T2 construct: Transfected in HEK293T cells
T2 chain: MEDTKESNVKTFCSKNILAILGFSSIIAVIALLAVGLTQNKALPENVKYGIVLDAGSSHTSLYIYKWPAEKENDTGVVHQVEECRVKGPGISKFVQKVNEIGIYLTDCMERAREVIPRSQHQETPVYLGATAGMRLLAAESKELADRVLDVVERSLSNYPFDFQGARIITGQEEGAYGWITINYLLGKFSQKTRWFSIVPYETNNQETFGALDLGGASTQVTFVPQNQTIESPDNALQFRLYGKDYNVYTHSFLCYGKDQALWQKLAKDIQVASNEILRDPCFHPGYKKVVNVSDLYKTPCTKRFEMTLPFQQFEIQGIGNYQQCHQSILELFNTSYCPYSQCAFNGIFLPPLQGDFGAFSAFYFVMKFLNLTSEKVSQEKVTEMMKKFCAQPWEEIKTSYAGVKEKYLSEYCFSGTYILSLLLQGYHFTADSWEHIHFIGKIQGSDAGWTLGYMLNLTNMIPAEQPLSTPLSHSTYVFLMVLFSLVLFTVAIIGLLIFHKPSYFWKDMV

CD39-L2 = target: T3, CD39-L2 (Homo sapiens, UniProt O75354, K202E); test: ELISA titration on recombinant human CD39 isoforms; type: binding; conditions: recombinant protein coated
T3 sequence (O75354 1-484 K202E): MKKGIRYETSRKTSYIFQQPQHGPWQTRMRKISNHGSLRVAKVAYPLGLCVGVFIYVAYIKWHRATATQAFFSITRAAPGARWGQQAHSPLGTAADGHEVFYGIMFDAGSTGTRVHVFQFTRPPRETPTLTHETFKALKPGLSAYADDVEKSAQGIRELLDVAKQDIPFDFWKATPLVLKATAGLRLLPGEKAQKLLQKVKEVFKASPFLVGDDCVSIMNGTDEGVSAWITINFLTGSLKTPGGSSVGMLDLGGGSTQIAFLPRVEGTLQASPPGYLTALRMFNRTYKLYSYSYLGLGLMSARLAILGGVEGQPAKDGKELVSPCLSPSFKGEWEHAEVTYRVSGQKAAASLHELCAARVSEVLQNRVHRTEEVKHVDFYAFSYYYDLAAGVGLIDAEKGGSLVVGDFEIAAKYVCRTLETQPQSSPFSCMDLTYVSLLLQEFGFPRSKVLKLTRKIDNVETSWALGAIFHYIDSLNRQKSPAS
Experimental: as §1

CD39 = target: T4, CD39 (Homo sapiens, UniProt P49961); test: Inhibition of CD39 enzymatic activity in Ramos cells, AMP production by Maldi TOF mass spectrometry; type: cell-based
T4 construct: cells that endogenously express CD39 at their surface, e.g. regulatory T (TReg) cells, B cells, cancer cells, lymphoma cells (e.g. Ramos cells); endogenous in cells; host or cells: Ramos human lymphoma cells
T4 sequence (P49961 1-510): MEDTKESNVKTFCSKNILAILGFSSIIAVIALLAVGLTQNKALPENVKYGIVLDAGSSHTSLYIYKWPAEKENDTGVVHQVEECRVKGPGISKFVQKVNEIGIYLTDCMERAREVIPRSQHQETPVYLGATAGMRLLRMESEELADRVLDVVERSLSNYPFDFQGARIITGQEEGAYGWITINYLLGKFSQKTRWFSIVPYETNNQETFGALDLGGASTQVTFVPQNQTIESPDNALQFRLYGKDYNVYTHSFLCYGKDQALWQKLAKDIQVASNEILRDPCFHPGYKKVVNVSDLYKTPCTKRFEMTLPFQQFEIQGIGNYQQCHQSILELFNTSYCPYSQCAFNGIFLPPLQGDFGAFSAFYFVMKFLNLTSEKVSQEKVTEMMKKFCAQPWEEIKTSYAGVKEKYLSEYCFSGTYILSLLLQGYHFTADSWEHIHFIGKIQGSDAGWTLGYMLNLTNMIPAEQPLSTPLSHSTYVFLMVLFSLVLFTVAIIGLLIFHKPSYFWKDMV
Experimental: The inhibition of CD39 enzymatic activity by antibodies was evaluated by Maldi TOF mass spectrometry (production of AMP). This assay represents an assay that is relatively insensitive to down-modulation of CD39 expression. […] After washes, cells were incubated with anti-CD39 antibodies, isotype control, or ARL and 50 μM ATP for 30 minutes at 4° C. in PBS. AMP generated is quantified in supernatants by Maldi TOP.
The inhibition of CD39 enzymatic activity by antibodies was evaluated by Maldi TOF mass spectrometry (production of AMP). Briefly, 10^5 Ramos human lymphoma cells were incubated overnight at 37° C. with anti-CD39 antibodies or a chemical CD39 inhibitor (ARL 100 μM). After washes, cells were incubated with anti-CD39 antibodies, isotype control, or ARL and 50 μM ATP for 30 minutes at 4° C. in PBS. AMP generated is quantified in supernatants by Maldi TOP. Antibodies were used at 33 nM and ARL at […].

Molecule	binding result [1]	binding result [2]	binding to CD39-L2 (CD39-L2)	maximum inhibition achieved (CD39; Ramos cells, 50 μM ATP) [%]	blocking CD39 enzymatic activity (CD39; Ramos cells, Example 6)	EC50 (CD39; read-out: EC50 (inhibition of 50% of the enzymatic activity of CD39), 100,000 Ramos cells, 50 μM ATP, n=3) [nM]
Antibody I-391, Fc silent recombinant chimeric human IgG1 with heavy chain N297Q mutation (antibody, V domains shown) VH: QIQLVQSGPELKKPGETVKISCKASGYTFRNYGMNWVKQAPGKGLKWMGWINTYTGEPTYADDFKGRFAFSLATSASTAYLQISNLKNEDTATYFCARKAYYGSNYYFDYWGQGTTLTVSS VL: DIVMTQSHKFMSTSVGDRVSITCKASQDVSTAVAWYQQKPGQSPKLLIYSASYRYTGVPDRFTGSGSGTDFTFTISTVQAEDLAVYYCQQHYTTPPYTFGGGTKLEIKR	no binding (tested: 50 ug/ml)	binds				
I-392: anti-CD39 antibody, VH SEQ ID NO: 8 and VL SEQ ID NO: 9, chimeric human IgG1 with N297Q mutation (antibody, V domains shown) VH: QIQLVQSGPEVKKPRETVKISCKASGYTFTHYGMNWVKQAPGKGLKWMGWINTYTGEPTYADDFKGRFAFSLEASASTAYLQINNLKNEDTATYFCARRRYEGNYVFYYFDYWGQGTTLTVSS VL: DIQMTQSPASLSASVGETVTITCRASENIYSYFSWYQQKQGKSPQLLVYTAKTLAEGVPSRFSGSGSGTQFSLKINSLQPEDFGSYYCQHHYVTPYTFGGGTKLEIK			not to any of the CD39 isoforms	93.4	very potent at blocking CD39 enzymatic activity	1.2

Source: patent publication US20190153113A1, “CD39 VASCULAR ISOFORM TARGETING AGENTS” (INNATE PHARMA, priority 2015, published 2019)
